B1: AFF4 peptide 32-67 (peptide, UniProt Q9UHB7 32-67, looked up)
chain: Ac-SPLFAEPYKVTSKEDKLSSRIQSMLGNYDEMKDFIG-NH2
notes: human AFF4, residues 32-67; also called AFF4_(32-67); synthetic AFF4 peptide (32-67); source: synthetic peptide (University of Utah DNA/Peptide Facility)

Experiments:
[1] = system: HIV-1 Tat;Cyclin T1 (CycT1, P-TEFb subunit);CDK9 (P-TEFb subunit) (HIV-1;human;human); test: EMSA; details: EMSA: 100 pM 32P-TAR, 0.009-190 nM Tat:P-TEFb, 5-fold molar excess AFF4 over P-TEFb; buffer and temperature as in Schulze-Gahmen 2014 (not given). SHAPE: RNA …
[2] = system: HIV-1 Tat;Cyclin T1 (CycT1, P-TEFb subunit);CDK9 (P-TEFb subunit);AFF4 2-73 K63A (HIV-1;human;human;human); test: EMSA; details: EMSA: 100 pM 32P-TAR, 0.009-190 nM Tat:P-TEFb, 5-fold molar excess AFF4 over P-TEFb; buffer and temperature as in Schulze-Gahmen 2014 (not given). SHAPE: RNA …
[3] = system: HIV-1 Tat;Cyclin T1 (CycT1, P-TEFb subunit);CDK9 (P-TEFb subunit);AFF4 2-73 WT (HIV-1;human;human;human); test: EMSA; details: EMSA: 100 pM 32P-TAR, 0.009-190 nM Tat:P-TEFb, 5-fold molar excess AFF4 over P-TEFb; buffer and temperature as in Schulze-Gahmen 2014 (not given). SHAPE: RNA …
[4] = system: HIV-1 Tat;Cyclin T1 (CycT1, P-TEFb subunit);CDK9 (P-TEFb subunit);AFF4 2-73 E61A (HIV-1;human;human;human); test: EMSA; details: EMSA: 100 pM 32P-TAR, 0.009-190 nM Tat:P-TEFb, 5-fold molar excess AFF4 over P-TEFb; buffer and temperature as in Schulze-Gahmen 2014 (not given). SHAPE: RNA …
[5] = system: HIV-1 Tat;Cyclin T1 (CycT1, P-TEFb subunit);CDK9 (P-TEFb subunit);AFF4 2-73 WT (HIV-1;human;human;human); test: EMSA; details: EMSA: 100 pM 32P-TAR, 0.009-190 nM Tat:P-TEFb, 5-fold molar excess AFF4 over P-TEFb; buffer and temperature as in Schulze-Gahmen 2014 (not given). SHAPE: RNA …; remark: listed apart in the source
human cyclin T1 1-264 = biological target: T1, human cyclin T1 1-264 (human, UniProt O60563 1-264); test: crystal structure; Tat_(1-57):AFF4_(32-67):P-TEFb combined with TAR21 RNA (nucleotides 21-41) at 1:1.3; sitting drops at 18°C; 5.9 Å; molecular replacement with PDB 4OGR; details: both partners purified
T1 construct: human cyclin T1, residues 1-264; also called CycT1; CycT; source: High 5 insect cells, recombinant baculovirus, co-expressed with CDK9 and Tat, purified
T1 sequence (O60563 1-264): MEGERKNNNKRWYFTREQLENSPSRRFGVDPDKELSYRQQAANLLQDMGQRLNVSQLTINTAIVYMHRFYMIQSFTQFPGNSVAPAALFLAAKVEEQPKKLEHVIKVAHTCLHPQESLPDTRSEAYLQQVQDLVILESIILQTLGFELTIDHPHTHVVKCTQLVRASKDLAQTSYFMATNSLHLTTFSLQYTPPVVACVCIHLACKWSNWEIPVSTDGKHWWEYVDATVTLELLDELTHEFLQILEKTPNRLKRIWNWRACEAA

Molecule	Kd [1] [nM]	binding signal (fold reduction in affinity vs WT AFF4) [2]	Kd [3] [nM]	binding signal (fold reduction in affinity vs WT AFF4) [4]	Kd [5] [nM]	binding result (human cyclin T1 1-264)
HIV-1 TAR 18-44 WT	19	2	0.26	3	0.2	–
B1	–	–	–	–	–	binds

Reference: publication PMC5072841, “Insights into HIV-1 proviral transcription from integrative structure and dynamics of the Tat:AFF4:P-TEFb:TAR complex” (eLife, 2016)
